Reference: paper PMC4098843 (Nature communications, 2014)

Biological target: the molecule itself
Test: crystal structure

B1: AF2299, a CDP-alcohol phosphotransferase from Archaeoglobus fulgidus (enzyme, Archaeoglobus fulgidus DSM 4304, UniProt O27985 1-344, looked up)
chain: MRLAYVKNHEIYGEKLLGLTLRERIEKTLQRAGFDVRFFDELSLEEAEDYLIILEPVLILERDLLLEGRKILVSDGFTVGYFFGGDFRTVFDGNLQSSIEKYLSLNNLESYEIWAIKLSNDNLKTAEKLLLSSLIKAKRTGLKPAYYDGWIAREINRKVSLRISRLLADTSVTPNQITVFSFFLSLVGSALFLLNSYLTTLLAGVIIQLHSIIDGCDGEIARLKFMESKYGAWLDGVLDRYSDFIIVFSITYVLSASNPVYWIIGFLAAFASLMIAYTGDKFVAAYMRTYSPEGFAIPITRDFRLLIIFACSVVNLPSLALVIIALLGNFEALRRIVALRSYTN
stoichiometry N: 2
